Laboratory results taken from patent US20260042834A1 (HBM ALPHA THERAPEUTICS, published 2026).
Substitutions are numbered along the chain they refer to. “And” between values parts separate entries of the source, which are not always exact repeats. Identical values can stand only once.

T1: corticotropin-releasing hormone (CRH) peptide (human and mouse (same sequence), not fully specified)
T1 peptide: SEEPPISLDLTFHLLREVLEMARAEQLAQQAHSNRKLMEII

B1: PR302341-10 (antibody, human IgG1, kappa, V domains shown)
VH: QVQLVQSGAEVKKPGASVKVSCKASGYTFTDYFMKWVRQAPGQGLEWMGVINPNNGDIFYNQKFKGRVTMTVDKSTSTAYMELSSLRSEDTAVYYCARGTDRALFAYWGQGTLVTVSS
VL: DVVMTQTPLSSPVTLGQPASISCRSGQSIVHSDGNTYLEWYQQRPGQPPRLLIYKVSNRFSGVPDRFSGSGAGTDFTLKISRVEAEDLGVYYCFQGSHIPWTFGGGTKVEIKR
B2: PR302341 (antibody, human IgG1, kappa, V domains shown)
VH: EVQLQQSGPELVKPGASVKMSCKASGYTFTDYFMKWVKQSHGESLEWIGVINPNNGDIFYNQKFKGKATLTVDKSSSTAFMQLNSLTSEDSAVYSCARGTDRALFAYWGQGTLVAVSA
VL: DVLMTQTPLSLPVSLGDQASISCRSGQSIVHSDGNTYLEWYLQRPGQSPRLLIYKVSNRFSGVPDRFSGSGSGTDFTLKISRVGAEDLGIYYCFQGSHIPWTFGGGTKLEVKR
B3: PR302341-20 (antibody, human IgG1, kappa, V domains shown)
VH: B1 VH with G44R, M70I, V72R, K74T, T76A
VL: B1 VL with T7S, S11L, P48S, A72S
B4: PR302341-23 (antibody, human IgG1, kappa, V domains shown)
VH: B1 VH with T76I, S85R, E89D
VL: B1 VL with T7S, S11L, P48S, A72S
B5: PR302341-24 (antibody, human IgG1, kappa, V domains shown)
VH: B1 VH with G44R, M70I, T76A
VL: B1 VL
B6: PR302341-25 (antibody, human IgG1, kappa, V domains shown)
VH: B1 VH with G44R, M70I, T76A
VL: B1 VL with S11L, P12S, L15P, Q42L, R44K, P48S, R50Q, A72S
B7: PR302341-26 (antibody, human IgG1, kappa, V domains shown)
VH: B1 VH with T76I, S85R, E89D
VL: B1 VL
B8: PR302341-27 (antibody, human IgG1, kappa, V domains shown)
VH: B1 VH with T76I, S85R, E89D
VL: B1 VL with S11L, P12S, L15P, Q42L, R44K, P48S, R50Q, A72S
B9: PR302341-22 (antibody, human IgG1, kappa, V domains shown)
VH: B1 VH with V72R, K74T, T76I, S85R, E89D
VL: B1 VL with T7S, S11L, P48S, A72S
B10: PR302334-7 (antibody, human IgG1, kappa, V domains shown)
VH: EVQLVESGGGLVQPGGSLRLSCAASGFTFSTYAMSWVRQAPGKGLEWVASIRSGGTTYYPDSVKGRFTISRDNSKNTLYLQMNSLRAEDTAVYYCTRGIDWGQGTTVTVSS
VL: EIVMTQSPATLSVSPGERATLSCKASQSVNNDVAWYQQKPGQAPRLLIYYASNRYTGIPARFSGSGSGTEFTLTISSLQSEDFAVYYCQQDYSSWTFGGGTKVEIKR
B11: PR302334-8 (antibody, human IgG1, kappa, V domains shown)
VH: B10 VH
VL: B10 VL with F83L, Y87F
B12: PR302334-24 (antibody, human IgG1, kappa, V domains shown)
VH: B10 VH with Q13K, S74A, T77S
VL: DIVMTQSPDSLAVSLGERATINCKASQSVNNDVAWYQQKPGQPPRLLIYYASNRYTGVPDRFSGSGSGTDFTLTISSLQAEDLAVYFCQQDYSSWTFGGGTKVEIKR
B13: PR302334-9 (antibody, human IgG1, kappa, V domains shown)
VH: B10 VH
VL: B12 VL with L83V, F87Y
B14: PR302334-12 (antibody, human IgG1, kappa, V domains shown)
VH: B10 VH
VL: DIQMTQSSLSASVSLGDRVTITCKASQSVNNDVAWYQQKPGKAPRLLIYYASNRYTGVPSRFSGSGSGTDFTFTISSLQPEDLATYFCQQDYSSWTFGGGTKVEIKR
B15: PR302334-10 (antibody, human IgG1, kappa, V domains shown)
VH: B10 VH
VL: B12 VL
B16: PR302334-26 (antibody, human IgG1, kappa, V domains shown)
VH: B10 VH with T77S
VL: B12 VL
B17: PR302334-11 (antibody, human IgG1, kappa, V domains shown)
VH: B10 VH
VL: B14 VL with L83I, F87Y
B18: PR302334-22 (antibody, human IgG1, kappa, V domains shown)
VH: B10 VH with A49S, T77S, T96A
VL: B10 VL with F83L, Y87F
B19: PR302334-25 (antibody, human IgG1, kappa, V domains shown)
VH: B10 VH with Q13K, S74A, T77S
VL: B14 VL
B20: PR302334 (antibody, human IgG1, kappa, V domains shown)
VH: EVKLVESGGGLVKPGGSLKLSCAASGFTFSTYAMSWVRQTPEKRLEWVASIRSGGTTYYPDSVKGRFTISRDNARNILYLQMSSLRSEDTAIYYCTRGIDWGQGTLVTVSA
VL: NIVMTQTPKFLLVSAGDRITITCKASQSVNNDVAWYQQKPGQSPKLLIYYASNRYTGVPDRFTGSGYGTDFTFTISTVQAEDLAVYFCQQDYSSWTFGGGTNLEIKR
B21: PR302334-14 (antibody, human IgG1, kappa, V domains shown)
VH: B10 VH
VL: B20 VL
B22: PR302334-16 (antibody, human IgG1, kappa, V domains shown)
VH: B10 VH with Q13K, S74A, T77S
VL: B20 VL
B23: PR302334-1 (antibody, human IgG1, kappa, V domains shown)
VH: B20 VH
VL: B10 VL
B24: PR302334-6 (antibody, human IgG1, kappa, V domains shown)
VH: B20 VH
VL: B14 VL
B25: PR302334-18 (antibody, human IgG1, kappa, V domains shown)
VH: B10 VH with T77S
VL: B20 VL
B26: PR302334-15 (antibody, human IgG1, kappa, V domains shown)
VH: B10 VH with Q13K, A49S, S74A, T77S, T96A
VL: B20 VL
B27: PR302334-5 (antibody, human IgG1, kappa, V domains shown)
VH: B20 VH
VL: B14 VL with L83I, F87Y
B28: PR302334-17 (antibody, human IgG1, kappa, V domains shown)
VH: B10 VH with A49S, T77S, T96A
VL: B20 VL
B29: PR302334-2 (antibody, human IgG1, kappa, V domains shown)
VH: B20 VH
VL: B10 VL with F83L, Y87F
B30: PR302334-4 (antibody, human IgG1, kappa, V domains shown)
VH: B20 VH
VL: B12 VL
B31: PR302334-3 (antibody, human IgG1, kappa, V domains shown)
VH: B20 VH
VL: B12 VL with L83V, F87Y

Target: T1, corticotropin-releasing hormone (CRH) …
Assay: cell-based or functional assay

hCRHR1 Luciferase Reporter Assay IC50 [nM] | mCrhr1 Luciferase Reporter Assay IC50 [nM] | Binder
0.342 | 1.6 | B1
0.437 | 1.71 | B2
0.188 | 1.62 | B3
0.351 | 1.19 | B4

Target: T1, corticotropin-releasing hormone (CRH) …
Assay: cell-based or functional assay
Remark: another data set of the same source

hCRHR1 Luciferase Reporter Assay IC50 [nM] | mCrhr1 Luciferase Reporter Assay IC50 [nM] | Binder
0.11 | 0.29 | B1
0.192 | 0.156 | B5
0.711 | – | B6
0.273 | – | B7
0.518 | – | B8
– | 0.611 | B2
0.162 | 0.451 | B3
0.243 | – | B9
0.043 | 0.111 | B4

Target: T1, corticotropin-releasing hormone (CRH) …
Assay: cell-based or functional assay
Remark: another data set of the same source

hCRHR1 Luciferase Reporter Assay IC50 | mCrhr1 Luciferase Reporter Assay IC50 [nM] | Binder
0.996 nM | – | B10
0.816 nM | 2.61 | B11
0.778 nM | 1.82 | B12
1.42 nM | – | B13
0.986 nM | – | B14
0.839 nM | 2.66 | B15
1.1 nM | 1.34 | B16
1 nM | – | B17
0.92 nM | – | B18
1.7 nM | – | B19
0.26 nM and 0.644 nM | 0.672 | B20
0.468 nM | – | B21
0.339 nM | – | B22
0.624 nM | – | B23
0.404 nM | – | B24
0.279 nM | – | B25
5.12 nM | – | B26
0.325 nM | – | B27
12.2 nM | – | B28
0.597 nM | – | B29
0.553 nM | – | B30
0.542 nM | – | B31
